Results published in paper PMC3897919, “ERAD and protein import defects in a sec61 mutant lacking ER-lumenal loop 7” (BMC Cell Biology, 2013).

Target: T1, Sec61∆L7p (S. cerevisiae, UniProt P32915 1-480, amino acids 305–371 of wildtype Sec61p had been replaced by two amino acids …)
T1 construct: Sec61p, S. cerevisiae, lacking ER-lumenal loop 7 and the lumenal ends of TMDs 7 and 8; also called Sec61ΔL7p; Sec∆L7p; source: yeast KRY461 with sec61ΔL7pRS315 as sole copy of SEC61, in microsomes; solubilized in Triton-X100 or digitonin, or total protein reconstituted into proteoliposomes
T1 sequence (looked up): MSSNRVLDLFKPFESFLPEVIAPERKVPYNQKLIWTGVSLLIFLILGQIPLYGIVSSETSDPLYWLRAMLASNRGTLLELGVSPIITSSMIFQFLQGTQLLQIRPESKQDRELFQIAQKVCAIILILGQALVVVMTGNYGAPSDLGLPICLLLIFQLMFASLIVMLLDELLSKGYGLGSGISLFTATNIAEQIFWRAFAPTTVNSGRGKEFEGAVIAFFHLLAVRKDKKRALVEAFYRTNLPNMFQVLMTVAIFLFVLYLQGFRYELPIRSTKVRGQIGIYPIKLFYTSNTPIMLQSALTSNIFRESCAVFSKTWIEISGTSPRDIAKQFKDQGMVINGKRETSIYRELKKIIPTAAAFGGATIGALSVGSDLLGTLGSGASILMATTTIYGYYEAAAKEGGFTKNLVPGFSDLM
Experiment: cross-linking; intact microsomes in B88, pH 7.9, treated with DSS for 20 min at 20°C, quenched with ammonium acetate; SDS-PAGE and immunoblotting with anti-Sec61p or anti-Sss1p antibodies
Conditions: partners not purified

B1: Sss1p (natural protein, UniProt P35179 1-80, looked up)
chain: MARASEKGEEKKQSNNQVEKLVEAPVEFVREGTQFLAKCKKPDLKEYTKIVKAVGIGFIAVGIIGYAIKLIHIPIRYVIV
notes: Sss1p, small subunit of the trimeric Sec61 complex, yeast; source: endogenous, yeast microsomes
fold weaker crosslink than in wildtype membranes: ≥ 5 fold
